In assay [1] the target is T1, human BCMA on cells (human, UniProt Q02223 1-184).
T1 construct: whole, on cells; also called huBCMA on HEK cells; HEK-huBCMA cells
T1 sequence (looked up): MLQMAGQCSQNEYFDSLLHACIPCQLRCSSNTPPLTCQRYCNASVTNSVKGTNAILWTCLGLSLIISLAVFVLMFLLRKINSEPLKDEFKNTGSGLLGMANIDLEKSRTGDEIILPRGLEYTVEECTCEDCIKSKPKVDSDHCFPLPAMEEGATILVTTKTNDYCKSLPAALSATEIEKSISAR
The experiment in a line: flow cytometry on HEK-huBCMA cells, PE anti-human Fc detection. (In general: A flow cytometer gives signals particle by particle.)

Assay [2] addresses T2, recombinant cynomolgus BCMA Fc(kih) (cynomolgus, UniProt A0A2K5UD97 4-51). As to the kind of experiment: SPR one-shot kinetics (ProteOn XPR36), IgG captured from HEK293 supernatant via anti-human F(ab)2, BCMA as analyte. As to the method: (§1) All experiments were performed at 25° C. using PBST as running buffer (10 mM PBS, pH 7.4 and 0.005% (v/v) Tween®20). A ProteOn XPR36 biosensor equipped with GLC and GLM sensor chips and coupling reagents (10 mM sodium acetate, pH 4.5, sulfo-N-hydroxysuccinimide, 1-ethyl-3-(3-dimethylaminopropyl)-carbodiimide hydrochloride [EDC] and ethanolamine) was purchased from BioRad Inc. (Hercules, Calif.). Immobilizations were performed at 30 μl/min. on a GLM chip. pAb (goat) anti hu IgG, F(ab)2 specific Ab (Jackson) was coupled in vertical direction using a standard amine-coupling procedure: all six ligand channels were activated for 5 min with a mixture of EDC (200 mM) and sulfo-NHS (50 mM). Immediately after the surfaces were activated, pAb (goat) anti hu IgG, F(ab)2 specific antibody (50 μg/ml, 10 mM sodium acetate, pH 5) was injected across all six channels for 5 min. Finally, channels were blocked with a 5 min injection of 1 M ethanolamine-HCl (pH 8.5). […] One-shot kinetic measurements were performed by injection of a dilution series of human, cyno and mouse BCMA (50, 10, 2, 0.4, 0.08, 0 nM, 50 μl/min) for 3 min along the vertical channels. Dissociation was monitored for 5 min Kinetic data were analyzed in ProteOn Manager v. 2.1. Processing of the reaction spot data involved applying an interspot-reference and a double-reference step using an inline buffer blank (Myszka, 1999). The processed data from replicate one-shot injections were fit to a simple 1:1 Langmuir binding model without mass transport (O'Shannessy et al., 1993).

For assay [3], the target named is T3, murine BCMA extracellular domain, monomeric Fc-fusion (murine, UniProt O88472 1-49, site-specifically biotinylated at the C-terminal avi-tag).
T3 construct: extracellular domain; also called muBCMA; mouse BCMA; not shown: hinge and Fc of human IgG1, knob chain; avi-tag; unfused human IgG1 Fc portion (hole chain)
The description is as above. As to the method:
as §1

Assay [4] has as its target T4, recombinant human BCMA Fc(kih) (human, UniProt Q02223 4-53, site-specifically biotinylated at the C-terminal avi-tag ; Biotin on the avi-tag at the C-terminus of the Fc knob chain (tag and Fc left out).).
T4 construct: Knobs-into-holes heterodimer carrying one BCMA ectodomain; also called huBCMA Fc(kih); huBCMA; not shown: human IgG1 hinge-Fc knob chain with C-terminal avi-tag, and the unfused Fc hole chain
T4 chain: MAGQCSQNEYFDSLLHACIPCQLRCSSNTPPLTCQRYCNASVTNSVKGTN
The description is as above. On the procedure: as §1

The target of assay [5] is T2, recombinant cynomolgus BCMA Fc(kih). As to the kind of experiment: SPR (Biacore T200), IgG captured via anti-human Fab, BCMA Fc(kih) as analyte, 1:1 Langmuir fit. As to the method:
(§2) Assessment of binding of anti-BCMA antibodies to recombinant BCMA by surface plasmon resonance (SPR) as follow. […] The avidity of the interaction between anti-BCMA antibodies and recombinant BCMA Fc(kih) (human and cynomolgus) was determined. Biotinylated recombinant human and cynomolgus BCMA Fc(kih) were directly coupled on a SA chip following instructions (Biacore, Freiburg/Germany). The immobilization level ranged from 200 to 700 RU. […] The dissociation was monitored for 180 seconds. Bulk refractive index differences were corrected for by subtracting the response obtained on the reference flow cell. Here, the anti-BCMA antibodies were flown over an empty surface previously activated and deactivated as described in the standard amine coupling kit. Apparent kinetic constants were derived using the Biacore T200 Evaluation Software (vAA, Biacore AB, Uppsala/Sweden), to fit rate equations for 1:1 Langmuir binding by numerical integration, despite the bivalency of the interaction for comparison purposes. The affinity of the interaction between anti-BCMA antibodies and recombinant human BCMA Fc(kih) was also determined. Anti-human Fab antibody (GE Healthcare) was directly coupled on a CMS chip at pH 5.0 using the standard amine coupling kit (Biacore, Freiburg/Germany). The immobilization level was about 6500 RU. […] The dissociation was monitored for 120 seconds. Bulk refractive index differences were corrected for by subtracting the response obtained on reference flow cell. […] Kinetic constants were derived using the Biacore T100 Evaluation Software (vAA, Biacore AB, Uppsala/Sweden), to fit rate equations for 1:1 Langmuir binding by numerical integration (Table 4).
(In general: In SPR one partner is held on a chip, and binding of the other changes the refractive index at the surface.)

Assay [6] has as its target T4, recombinant human BCMA Fc(kih). The assay is described as above. As to the method:
as §2

Assay [7] concerns the target T2, recombinant cynomolgus BCMA Fc(kih). The experiment in a line: ratio of SPR KD values (KD cynomolgus BCMA / KD human BCMA), reference human BCMA Fc(kih). On the procedure: The avidity of the interaction between anti-BCMA antibodies and recombinant BCMA Fc(kih) (human and cynomolgus) was determined. Biotinylated recombinant human and cynomolgus BCMA Fc(kih) were directly coupled on a SA chip following instructions (Biacore, Freiburg/Germany). The immobilization level ranged from 200 to 700 RU. […] The dissociation was monitored for 180 seconds. Bulk refractive index differences were corrected for by subtracting the response obtained on the reference flow cell. Here, the anti-BCMA antibodies were flown over an empty surface previously activated and deactivated as described in the standard amine coupling kit. Apparent kinetic constants were derived using the Biacore T200 Evaluation Software (vAA, Biacore AB, Uppsala/Sweden), to fit rate equations for 1:1 Langmuir binding by numerical integration, despite the bivalency of the interaction for comparison purposes. The affinity of the interaction between anti-BCMA antibodies and recombinant human BCMA Fc(kih) was also determined. Anti-human Fab antibody (GE Healthcare) was directly coupled on a CMS chip at pH 5.0 using the standard amine coupling kit (Biacore, Freiburg/Germany). The immobilization level was about 6500 RU. […] The dissociation was monitored for 120 seconds. Bulk refractive index differences were corrected for by subtracting the response obtained on reference flow cell. […] Kinetic constants were derived using the Biacore T100 Evaluation Software (vAA, Biacore AB, Uppsala/Sweden), to fit rate equations for 1:1 Langmuir binding by numerical integration (Table 4).
Based on the affinity values described in Example 2, the affinity of anti-BCMA antibodies to human BCMA vs. cynomolgus BCMA were compared and cyno/hu affinity ratio (gap) values were calculated (Table 5).

Values joined by “and” are separate entries in the source; they are usually repeats but may differ in a detail not shown here. Equal entries are not always repeated.

Broadly, the EC50 is the midpoint of the concentration-response curve. Low readings indicate higher potency in that assay, high ones lower potency in that assay. The Kd is the constant that tells how readily two partners part at equilibrium. The term koff denotes the first-order rate constant of dissociation. The kon is a measure of how fast the partners come together.

T2 sequence (A0A2K5UD97 entry or part of it): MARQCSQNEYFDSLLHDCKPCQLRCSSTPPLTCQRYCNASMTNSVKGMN
T3 sequence (O88472 whole entry, the tested form may be a part): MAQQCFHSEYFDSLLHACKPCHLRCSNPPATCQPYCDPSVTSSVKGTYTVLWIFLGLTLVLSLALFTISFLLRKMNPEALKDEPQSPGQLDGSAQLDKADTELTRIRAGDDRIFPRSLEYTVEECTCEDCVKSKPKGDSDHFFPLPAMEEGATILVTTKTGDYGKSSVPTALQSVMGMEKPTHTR

B1: Mab 21 IgG (antibody, V domains shown)
VH: EVQLLESGGGLVQPGGSLRLSCAASGFTFSDNAMGWVRQAPGKGLEWVSAISGPGSSTYYADSVKGRFTISRDNSKNTLYLQMNSLRAEDTAVYYCAKVLGWFDYWGQGTLVTVSS
VL: EIVLTQSPGTLSLSPGERATLSCRASQSVSEYYLAWYQQKPGQAPRLLIEHASTRATGIPDRFSGSGSGTDFTLTISRLEPEDFAVYYCQQYGYPPDFTFGQGTKVEIK
notes: also called antibody 21
B1: the half-maximal effective concentration (EC50) in assay [1] was 2.46 nM and 0.35 µg/mL. Moreover, the dissociation constant (Kd) in assay [2] turned out to be 51 pM; in assay [3], 730 pM; in assay [4] it was 28 pM; in assay [5], 478 pM; in assay [6] it was 51.6 pM. The koff in assay [5] is 0.000235 s⁻¹; in assay [6], 4.39e-05 s⁻¹. Further, the kon is 491000 M⁻¹ s⁻¹ in assay [5] and 851000 M⁻¹ s⁻¹ in assay [6]. Moreover, in assay [7], the Affinity cyno/hu gap came out at 9.3 fold.

B2: Mab 14 (antibody, V domains shown)
VH: EVQLLESGGGLVQPGGSLRLSCAASGFTFYTNAMGWVRQAPGKGLEWVSAINRFGGSTYYADSVKGRFTISRDNSKNTLYLQMNSLRAEDTAVYYCAKVLGWFDYWGQGTLVTVSS
VL: EIVLTQSPGTLSLSPGERATLSCRASQSVSDEYLSWYQQKPGQAPRLLIHSASTRATGIPDRFSGSGSGTDFTLAISRLEPEDFAVYYCQQYGYPPDFTFGQGTKVEIK
notes: IgG variant (VH/VL combination)
Consider B2, for which, in assay [1], the EC50 was 1.47 nM and 0.21 µg/mL.

B3: Mab 22 IgG (antibody, V domains shown)
VH: EVQLLESGGGLVQPGGSLRLSCAASGFTFSDNAMGWVRQAPGKGLEWVSAISGPGSSTYYADSVKGRFTISRDNSKNTLYLQMNSLRAEDTAVYYCAKVLGWFDYWGQGTLVTVSS
VL: EIVLTQSPGTLSLSPGERATLSCRASQSVSSYYLAWYQQKPGQAPRLLISGAGSRATGIPDRFSGSGSGTDFTLTISRLEPEDFAVYYCQQYGYPPDFTFGQGTKVEIK
notes: also called antibody 22; clone 22
B3: the EC50 in assay [1] is 2.08 nM and 0.3 µg/mL. Also, the Kd in assay [3] stood at 900 pM; in assay [4] it was 48 pM; in assay [5] it was 974 pM; in assay [6], 63.3 pM. Also, the results for the koff in assay [5] and in assay [6] were 0.000442 s⁻¹ and 5.15e-05 s⁻¹, respectively. Further, the kon in assay [5] is 454000 M⁻¹ s⁻¹; in assay [6] it was 814000 M⁻¹ s⁻¹. In assay [7], the Affinity cyno/hu gap is 15.4 fold.

B4: Mab 39 IgG (antibody, V domains shown)
VH: EVQLLESGGGLVQPGGSLRLSCAASGFTFTQNAMGWVRQAPGKGLEWVSAISPTGFSTYYADSVKGRFTISRDNSKNTLYLQMNSLRAEDTAVYYCAKVLGWFDYWGQGTLVTVSS
VL: EIVLTQSPGTLSLSPGERATLSCRASQSVSEYYLAWYQQKPGQAPRLLIEHASTRATGIPDRFSGSGSGTDFTLTISRLEPEDFAVYYCQQYGYPPDFTFGQGTKVEIK
For B4, in assay [1], the EC50 is 1.73 nM and 0.25 µg/mL. Further, the Kd in assay [2] worked out at 270 pM; in assay [4] it was 62 pM; in assay [5], 2170 pM; in assay [6], 155 pM. Moreover, the koff came to 0.000467 s⁻¹ in assay [5] and 5.58e-05 s⁻¹ in assay [6]. The figures for the kon in assay [5] and in assay [6] were 215000 M⁻¹ s⁻¹ and 361000 M⁻¹ s⁻¹, respectively. Besides, the Affinity cyno/hu gap in assay [7] amounted to 14 fold.

B5: Mab 34 (antibody, V domains shown)
VH: EVQLLESGGGLVQPGGSLRLSCAASGFTFYTNAMGWVRQAPGKGLEWVSAINRFGGSTYYADSVKGRFTISRDNSKNTLYLQMNSLRAEDTAVYYCAKVLGWFDYWGQGTLVTVSS
VL: EIVLTQSPGTLSLSPGERATLSCRASQSVSSYYLAWYQQKPGQAPRLLISGAGSRATGIPDRFSGSGSGTDFTLTISRLEPEDFAVYYCQQYGYPPDFTFGQGTKVEIK
notes: IgG variant
B5: in assay [1], the EC50 is 1.24 nM and 0.18 µg/mL.

B6: Mab 44 (antibody, V domains shown)
VH: EVQLLESGGGLVQPGGSLRLSCAASGFTFSSAPMGWVRQAPGKGLEWVSAISYIGHTYYADSVKGRFTISRDNSKNTLYLQMNSLRAEDTAVYYCAKVLGWFDYWGQGTLVTVSS
VL: EIVLTQSPGTLSLSPGERATLSCRASQSVSDEYLSWYQQKPGQAPRLLIHSASTRATGIPDRFSGSGSGTDFTLAISRLEPEDFAVYYCQQYGYPPDFTFGQGTKVEIK
notes: IgG variant
In the case of B6, in assay [1], the EC50 was 1.55 nM and 0.22 µg/mL.

B7: Mab 28 (antibody, V domains shown)
VH: EVQLLESGGGLVQPGGSLRLSCAASGFTFSSAPMGWVRQAPGKGLEWVSAISYIGHTYYADSVKGRFTISRDNSKNTLYLQMNSLRAEDTAVYYCAKVLGWFDYWGQGTLVTVSS
VL: EIVLTQSPGTLSLSPGERATLSCRASQSVSSYYLAWYQQKPGQAPRLLISGAGSRATGIPDRFSGSGSGTDFTLTISRLEPEDFAVYYCQQYGYPPDFTFGQGTKVEIK
notes: IgG variant
Take B7: in assay [1], the EC50 was 11.3 nM and 1.63 µg/mL.

The values are drawn from patent US20220002427A1 (ENGMAB SARL, published 2022).
